{"source": "paper PMC9543391", "about": "“ERp57 chaperon protein protects neuronal cells from Aβ‐induced toxicity” (Journal of Neurochemistry, 2022)", "molecules": {"B1": {"name": "ERp57: thiol oxidoreductase with Protein Disulfide Isomerase activity; human recombinant PDIA3 expressed in E. coli (protein)", "chain": "SDVLELTDDNFESRISDTGSAGLMLVEFFAPWCGHCKRLAPEYEAAATRLKGIVPLAKVDCTANTNTCNKYGVSGYPTLKIFRDGEEAGAYDGPRTADGIVSHLKKQAGPASVPLRTEEEFKKFISDKDASIVGFFDDSFSEAHSEFLKAASNLRDNYRFAHTNVESLVNEYDDNGEGIILFRPSHLTNKFEDKTVAYTEQKMTSGKIKKFIQENIFGICPHMTEDNKDLIQGKDLLIAYYDVDYEKNAKGSNYWRNRVMMVAKKFLDAGHKLNFAVASRKTFSHELSDFGLESTAGEIPVVAIRTAKGEKFVMQEEFSRDGKALERFLQDYFDGNLKRYLKSEPIPESNDGPVKVVVAENFDEIVNNENKDVLIEFYAPWCGHCKNLEPKYKELGEKLSKDPNIVIAKMDATANDVPSPYEVRGFPTIYFSPANKKLNPKKYEGGRELSDFISYLQREATNPPVIQEEKPKKKKKAQEDL"}}, "key": {"[1]": {"system": "SH‐SY5Y cells", "test": "MTT cell viability assay", "assay_type": "cell-based, human", "conditions": "MTT, n = 4", "method": "For the cell viability experiments, 96‐well plates were seeded with 10 000 cells/well. After 24 h, cells were treated with 30 μM Aβ25−35 aggregated for 72 h in the presence or in the absence of 0.12 μM of ERp57 or GST recombinant proteins (in a 1:250 ratio), in a final volume of 150 μl per well. Plates were incubated for 24 h in an incubator at 37°C, 5% of CO2, and 99% RH. Thereafter, 20 μl of (3‐[4,5‐Dimethylthiazol‐2‐yl]‐2,5‐Diphenyltetrazolium Bromide) (MTT) dye (stock solution 5 mg/ml in PBS) (catalog number #M2003) was added to the wells and incubated for additional 2 h at 37°C and 5% CO2. Water‐insoluble formazan crystals were dissolved in 100 μl of DMSO (catalog number #472301). For spectrophotometric measurements, Appliscan® plate reader (Thermo scientific) was used at the wavelength 570 nm, with reference set at 690 nm."}, "[2]": {"system": "α‐synuclein", "conditions": "1:50 molar ratio; ref Serrano et al., [2020]; cited from earlier work", "description": "We thus hypothesize that the mechanism by which ERp57 exerts its neuroprotective action resides in ERp57 impairment of peptide aggregation, rather than in disaggregation of existing fibrils. The inhibition of the aggregation was induced by low amounts of ERp57 protein, present in the reaction mixture in a very low molar ratio compared to the peptide (1:250), in line with the experiments conducted by Serr ..."}, "[3]": {"system": "pre‐aggregated Aβ25−35", "test": "Thioflavin-T assay, reversal of pre-aggregated Aβ25−35", "assay_type": "biochemical", "conditions": "Aβ25−35 aggregated alone 24 h, then 72 h with increasing concentrations of ERp57; n = 3", "method": "Thioflavin‐T assay was used to assess the aggregation of the Aβ25−35. Thioflavin‐T (catalog number #T3516) was prepared in glycine buffer (0.05 M, pH 8.5) (catalog number #G8898), to a final concentration of 5 μM, in order to be saturated by Aβ25−35 (10 μM). Aβ25−35 was aggregated either alone or in the presence of 0.04 μM ERp57 or GST recombinant protein (in a 1:250 ratio). The assay was performed using a spectrofluorometer Spex Fluoromax® at 25°C; the excitation wavelength was set at 440 nm (5 nm band width) and the fluorescence was measured between 450 and 520 nm (5 nm band width) (Francioso et al., [2020]).\nHaving ascertained the ability of ERp57 to block the aggregation process, we wondered if the protein was able to reverse a preformed amyloid fibril into oligomeric/monomeric forms. To understand this, we aggregated Aβ25−35 alone for 24 h and then incubated it for 72 h in the presence of increasing concentrations of ERp57, assessing every 24 h the state of aggregation by thioflavin T assay (Figure 5c). […] Probably this phenomenon could be because of the fact that the presence of a protein capable of interacting with Aβ25−35 (given the previous experiments) can favor to the maintenance of Aβ25−35 in solution, facilitating the process of aggregation. […]"}, "[4]": {"system": "Aβ peptide", "conditions": "cerebrospinal fluid of healthy people; ref Erickson et al., [2005]; cited from earlier work", "description": "ERp57 is an endoplasmic reticulum disulfide isomerase which modulates folding of newly synthesized glycoproteins by recognizing and interacting with peptides or incorrectly folded proteins, thereby promoting formation of disulfide bonds and correct protein folding (Torres et al., [2015]). Conversely, Aβ is a small peptide that, because of its intrinsic characteristics, tends to aggregate and to escape the ER‐associated degradation process (ERAD) (Holtzman, [2013]). Eventually, monomeric Aβ is released out of the cell and begins its slow aggregation into fibrils that will form the template for ..."}, "[5]": {"system": "Aβ25−35", "test": "Thioflavin-T assay, Aβ25−35 aggregation (co-incubation)", "assay_type": "biochemical", "conditions": "1:250 protein/Aβ25−35 molar ratio (4 μM / 1 mM), up to 72 h, 4°C, ThT read at 485 nm, n = 6", "method": "The amyloid peptide Aβ25−35 was synthesized by conventional solid‐phase chemistry (Atherton & Sheppard, [1990]), and stored at −20°C. The peptide was resuspended in 1,1,1,3,3,3‐Hexafluoro‐2‐propanol (Sigma®, catalog number #105228), incubated for 1 h with gentle shaking at 4°C, then aliquoted and dried in speedVac for 20 min. The aliquots were stored under a vacuum glass bell. The day before being used, aliquots were resuspended in phosphate‐buffered saline (PBS) at a final concentration of 1 mM, incubated in a ultrasonic bath on ice for 30 min to induce aggregation, followed by gentle shaking at 4°C overnight. Aβ25−35 was diluted in culture medium at a final concentration of 30 μM for cell treatments. Aggregation of Aβ25−35 in the presence of ERp57 was obtained as follows: dried aliquots of Aβ25−35 were resuspended in PBS. […]\nThioflavin‐T assay was used to assess the aggregation of the Aβ25−35. […] The assay was performed using a spectrofluorometer Spex Fluoromax® at 25°C; the excitation wavelength was set at 440 nm (5 nm band width) and the fluorescence was measured between 450 and 520 nm (5 nm band width) (Francioso et al., [2020])."}, "[6]": {"system": "c99 fragment of APP", "conditions": "c99 generated by β-secretase; ref Selivanova et al., [2007]; cited from earlier work", "description": "(§1) As previously reported (Williams, [2006]), it is known that ERp57 together with calreticulin and calnexin forms a complex capable of interacting with glycoproteins, including APP, at the […] level, and therefore it can be hypothesized that the contact regions between ERp57 and APP are maintained at least in part also by Aβ, despite the cuts suffered by the secretases."}, "[7]": {"system": "full‐length APP", "conditions": "permeabilized cells; ref Selivanova et al., [2007]; cited from earlier work", "description": "as §1"}}, "note": "Entries after “also recorded” stand apart in the source; their conditions may differ.", "data": [{"molecule": "B1", "values": [{"measurement": "cell viability (with Aβ25−35)", "setting": "[1]; 30 μM Aβ25−35 aggregated 72 h with 0.12 μM protein (1:250), 24 h treatment", "result": "counteracts the toxic effects of Aβ25−35 and restores cellular viability; also recorded: significant increase in cell viability; also recorded: their viability was preserved"}, {"measurement": "cell viability (protein alone)", "setting": "[1]; protein alone, without Aβ25−35, 24 h", "result": "no effect on cell viability"}, {"measurement": "effect on α-synuclein aggregation", "setting": "[2]", "result": "able to reduce the aggregation of α‐synuclein in a very efficient manner"}, {"measurement": "ThT fluorescence intensity of pre-aggregated Aβ25−35", "setting": "[3]", "result": "increased in a dose‐dependent manner"}, {"measurement": "reversal of preformed amyloid", "setting": "[3]", "result": "not able to reverse the amyloid aggregation; also recorded: not able to disassemble pre‐aggregated Aβ25−35; also recorded: fails to disaggregate a fibril"}, {"measurement": "complex of ERp57 with Aβ", "setting": "[4]", "result": "linked to Aβ in the cerebrospinal fluid of healthy people"}, {"measurement": "effect on Aβ25−35 aggregation (ThT fluorescence)", "setting": "[5]", "result": "a marked reduction in the fluorescence signal; also recorded: completely blocks this process; also recorded: strongly reduced the aggregation of the peptide"}, {"measurement": "interaction with c99 fragment of APP", "setting": "[6]", "result": "does not interact with the c99 fragment of APP"}, {"measurement": "interaction with full-length APP", "setting": "[7]", "result": "interacts with full‐length APP"}]}]}
